Reference: US5795865A, “Kallikrein-inhibiting "kunitz domain" proteins and analogues thereof” (Dyax Corp., priority 1996, dated 1998)
Where two headings read alike, the source gives them in different places.

Assays:
plasma kallikrein (pKA) = plasma kallikrein (pKA) (Homo sapiens, UniProt P03952); assay: Inhibition of human plasma kallikrein (measured Ki taken as KD), yeast-expressed purified proteins; type: biochemical; set-up: Hydrolysis of the Arg371 -Ile372 peptide bond yields a two-chain proteinase joined by a disulfide bond; conditions: for Ki: preliminary measurements
Description: (§1) A second appropriate method of measuring KD is to measure the inhibitor activity against the enzyme. […] For the proteins of this invention, having KD in the range 5 nM to 50 pM, nanograms to micrograms of inhibitor suffice. When using this method, the competition between the inhibitor and the enzyme substrate can give a measured Ki that is higher than the true Ki. Measurement reported here are not so corrected because the correction would be very small and the any correction would reduce the Ki. Here, we use the measured Ki as a direct measure of KD.
The three isolates KKII/3#6, KK2/#11, and KK2/#13 were recloned into a yeast expression vector. The yeast expression vector is derived from pMFalpha8 (KURJ82 and MIYA85). The LACI variant genes were fused to part of the matα 1 gene, generating a hybrid gene consisting of the matα 1 promoter-signal peptide and leader sequence-fused to the LACI variant. Note that the correctly processed LACI-K1 variant protein should be as detailed in Table 2 with the addition of residues glu-ala-ala-glu (SEQ ID NO: 70) to the N-terminal met (residue 1 in Table 2). Expression in S. cerevisiae gave acceptable yield typical of this system.

human plasma Kallikrein = biological target: T1, human plasma Kallikrein (Homo sapiens, UniProt P03952); assay: Binding of display-phage to kallikrein-agarose beads (Table 8); conditions: for Relative Binding: fraction bound relative to the parental display-phage, LACI-K1; for Fraction Bound: pfu's eluted as a fraction of the input number (10^10 pfu's)
T1 construct: Hydrolysis of the Arg371 -Ile372 peptide bond yields a two-chain proteinase joined by a disulfide bond; purchased Calbiochem 420302
Description: This method is highly sensitive because the genetic packages can be amplified. We obtain at least semiquantitative values for the binding constants by use of a pH step gradient. […] Any other suitable method of measuring protein binding may be used.
The overall scheme for selecting a LACI-K1 variant to bind to a given protease involves incubation of the phage-display library with the kallikrein-beads of interest in a buffered solution (PBS containing 1 mg/ml BSA) followed by washing away the unbound and poorly retained display-phage variant with PBS containing 0.1% Tween 20. Kallikrein beads were made by coupling human plasma Kallikrein (Calbiochem, San Diego, Calif., # 420302) to agarose beads using Reactigel (6x) (Pierce, Rockford, II, #202606). The more strongly bound display-phage are eluted with a low pH elution buffer, typically citrate buffer (pH 2.0) containing 1 mg/ml BSA, which is immediately neutralized with Tris buffer to pH 7.5. This process constitutes a single round of selection.

plasmin = plasmin (Homo sapiens, UniProt P00747); assay: Inhibition of plasmin (Ki); type: biochemical
Description: as §1

[1] = about 840 mg, 80 open-heart surgery patients, FRAE89; cited from earlier work
[2] = not corrected for substrate competition, read-out: Ki for plasma kallikrein (pKA)
[3] = stated as 'probably less than', read-out: Ki for plasma kallikrein (pKA), probable bound

Sequence of plasma kallikrein (pKA) (P03952 391-638 limits assumed): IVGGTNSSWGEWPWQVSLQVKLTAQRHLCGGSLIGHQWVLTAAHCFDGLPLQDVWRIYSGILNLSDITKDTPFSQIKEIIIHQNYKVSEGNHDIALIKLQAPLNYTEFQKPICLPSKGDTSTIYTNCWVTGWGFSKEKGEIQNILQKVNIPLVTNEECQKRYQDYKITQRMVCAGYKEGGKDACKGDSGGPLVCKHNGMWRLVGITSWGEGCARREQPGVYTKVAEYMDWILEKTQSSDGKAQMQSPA
Sequence of plasma kallikrein (pKA) (P03952 20-390 partner limits assumed): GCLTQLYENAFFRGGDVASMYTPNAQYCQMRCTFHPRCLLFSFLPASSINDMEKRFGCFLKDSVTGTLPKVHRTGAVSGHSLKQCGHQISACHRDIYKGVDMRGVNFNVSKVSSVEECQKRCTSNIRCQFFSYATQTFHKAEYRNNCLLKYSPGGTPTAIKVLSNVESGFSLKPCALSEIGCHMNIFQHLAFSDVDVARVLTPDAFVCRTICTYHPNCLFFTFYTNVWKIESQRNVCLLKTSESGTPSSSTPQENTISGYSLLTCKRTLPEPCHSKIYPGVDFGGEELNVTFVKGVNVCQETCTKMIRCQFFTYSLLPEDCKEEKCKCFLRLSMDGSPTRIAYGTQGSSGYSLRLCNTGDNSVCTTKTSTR
T1 sequence (P03952 391-638 limits assumed): as the sequence (P03952 391-638 limits assumed) above
T1 sequence (P03952 20-390 partner limits assumed): as the sequence (P03952 20-390 partner limits assumed) above
Sequence of plasmin (P00747 581-810 limits assumed): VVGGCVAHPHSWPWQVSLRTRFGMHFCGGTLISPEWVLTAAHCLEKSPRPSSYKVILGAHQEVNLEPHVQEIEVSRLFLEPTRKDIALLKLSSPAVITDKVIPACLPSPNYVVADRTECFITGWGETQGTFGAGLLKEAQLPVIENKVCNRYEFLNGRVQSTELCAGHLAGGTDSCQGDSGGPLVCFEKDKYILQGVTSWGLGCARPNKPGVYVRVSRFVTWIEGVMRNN
Sequence of plasmin (P00747 97-580 partner limits assumed): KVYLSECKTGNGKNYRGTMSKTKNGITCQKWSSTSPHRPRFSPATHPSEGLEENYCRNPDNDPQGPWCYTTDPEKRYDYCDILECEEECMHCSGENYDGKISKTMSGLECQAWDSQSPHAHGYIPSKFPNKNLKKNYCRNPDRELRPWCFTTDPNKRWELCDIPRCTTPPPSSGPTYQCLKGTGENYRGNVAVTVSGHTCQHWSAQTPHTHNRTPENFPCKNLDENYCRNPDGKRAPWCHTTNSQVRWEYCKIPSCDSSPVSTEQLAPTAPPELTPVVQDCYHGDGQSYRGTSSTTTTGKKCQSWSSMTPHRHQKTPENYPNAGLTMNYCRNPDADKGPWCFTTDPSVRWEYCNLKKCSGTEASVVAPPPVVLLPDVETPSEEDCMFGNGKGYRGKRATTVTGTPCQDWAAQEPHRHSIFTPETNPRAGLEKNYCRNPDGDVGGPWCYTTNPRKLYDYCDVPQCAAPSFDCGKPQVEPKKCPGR

## KK2/#11: second-library LACI-K1 variant Kunitz domain, SEQ ID NO. 22 (MHSFCAFKADDGPCRAAHPRWFFNIFTRQCEEFSYGGCGGNQNRFESLEECKKMCTRD)
Plasma kallikrein (pKA); [2]
  Ki: < 0.3 nM
Plasma kallikrein (pKA); [3]
  Ki: < 0.1 nM

## KK2/#13: second-library LACI-K1 variant Kunitz domain, SEQ ID NO. 19 (MHSFCAFKADGGRCRGAHPRWFFNIFTRQCEEFSYGGCGGNQNRFESLEECKKMCTRD)
Plasma kallikrein (pKA); [2]
  Ki: < 0.3 nM
Plasma kallikrein (pKA); [3]
  Ki: < 0.1 nM

## KKI/3(a): LACI-K1 variant Kunitz domain, phase I selectant, SEQ ID NO. 15 (MHSFCAFKADDGRCKGAHLRFFFNIFTRQCEEFIYGGCEGNQNRFESLEECKKMCTRD)
Human plasma Kallikrein
  Relative Binding: 761
  Fraction Bound: 3.2 × 10^-3

## KKI/3(b): LACI-K1 variant Kunitz domain, phase I selectant, SEQ ID NO. 16 (MHSFCAFKADDGPCKAIHLRFFFNIFTRQCEEFIYGGCEGNQNRFESLEECKKMCTRD)
Human plasma Kallikrein
  Relative Binding: 524
  Fraction Bound: 2.2 × 10^-3

## KKII/3#5: LACI-K1 variant Kunitz domain, SEQ ID NO. 9 (MHSFCAFKADDGHCKASLPRFFFNIFTRQCEEFIYGGCGGNQNRFESLEECKKMCTRD)
Human plasma Kallikrein
  Relative Binding: 928
  Fraction Bound: 3.9 × 10^-3

## KKII/3#6: lead pKA inhibitor, LACI-K1 variant Kunitz domain, SEQ ID NO. 10 (MHSFCAFKADDGHCKANHQRFFFNIFTRQCEEFSYGGCGGNQNRFESLEECKKMCTRD)
Plasma kallikrein (pKA); [2]
  Ki: ~0.3 nM
Plasma kallikrein (pKA); [3]
  Ki: < 0.5 nM
Plasma kallikrein (pKA); versus both wild-type LACI and BPTI
  Ki for kallikrein relative to wild-type LACI and BPTI (times): over 100 times
plasmin
  Ki: 10000 nM
Human plasma Kallikrein
  Relative Binding: 2071
  Fraction Bound: 8.7 × 10^-3

## LACI-K1: first Kunitz domain of human LACI (residues 50 to 107), parental molecule, SEQ ID NO. 3 (MHSFCAFKADDGPCKAIMKRFFFNIFTRQCEEFIYGGCEGNQNRFESLEECKKMCTRD) [reference compound]
Human plasma Kallikrein
  Fraction Bound: 4.2 × 10^-6

## bovine pancreatic trypsin inhibitor [BPTI]
[1]
  decrease of mean amount transfused: 74%
Human plasma Kallikrein
  Fraction Bound: 2.5 × 10^-5
